T1: MTR4, full length (human, UniProt P42285 1-1042)
T1 sequence: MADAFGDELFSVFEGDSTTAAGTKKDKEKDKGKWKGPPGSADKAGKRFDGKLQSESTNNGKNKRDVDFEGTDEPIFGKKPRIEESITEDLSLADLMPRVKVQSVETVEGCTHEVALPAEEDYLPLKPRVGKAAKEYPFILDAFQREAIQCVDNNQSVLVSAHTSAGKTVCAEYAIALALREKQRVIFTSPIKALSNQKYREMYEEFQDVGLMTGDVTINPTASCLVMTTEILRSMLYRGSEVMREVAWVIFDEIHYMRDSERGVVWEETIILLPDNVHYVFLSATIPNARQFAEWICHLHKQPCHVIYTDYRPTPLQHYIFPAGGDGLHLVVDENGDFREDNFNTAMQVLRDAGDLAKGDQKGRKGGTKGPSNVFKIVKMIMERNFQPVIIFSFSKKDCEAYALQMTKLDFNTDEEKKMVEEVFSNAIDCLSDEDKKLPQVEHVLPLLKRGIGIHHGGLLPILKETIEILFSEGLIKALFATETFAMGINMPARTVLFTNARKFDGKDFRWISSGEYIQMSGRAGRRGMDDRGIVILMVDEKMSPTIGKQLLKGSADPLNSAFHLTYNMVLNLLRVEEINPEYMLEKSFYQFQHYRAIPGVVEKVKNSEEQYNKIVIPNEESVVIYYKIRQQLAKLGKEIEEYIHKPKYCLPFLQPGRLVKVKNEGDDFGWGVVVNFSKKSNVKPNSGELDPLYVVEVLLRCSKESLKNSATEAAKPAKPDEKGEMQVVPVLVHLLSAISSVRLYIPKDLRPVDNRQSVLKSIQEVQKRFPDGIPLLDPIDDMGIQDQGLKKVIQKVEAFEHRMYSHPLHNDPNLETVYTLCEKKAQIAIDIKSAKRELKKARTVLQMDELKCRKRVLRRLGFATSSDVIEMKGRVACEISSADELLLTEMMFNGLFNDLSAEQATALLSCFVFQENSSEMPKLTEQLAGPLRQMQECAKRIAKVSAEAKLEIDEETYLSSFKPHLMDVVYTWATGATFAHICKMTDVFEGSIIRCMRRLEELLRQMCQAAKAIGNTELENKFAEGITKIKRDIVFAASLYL

B1: ZCCHC8, full length (Z1) (natural protein)
chain: MAAEVYFGDLELFEPFDHPEESIPKPVHTRFKDDDGDEEDENGVGDAELRERLRQCEETIEQLRAENQELKRKLNILTRPSGILVNDTKLDGPILQILFMNNAISKQYHQEIEEFVSNLVKRFEEQQKNDVEKTSFNLLPQPSSIVLEEDHKVEESCAIKNNKEAFSVVGSVLYFTNFCLDKLGQPLLNENPQLSEGWEIPKYHQVFSHIVSLEGQEIQVKAKRPKPHCFNCGSEEHQMKDCPMPRNAARISEKRKEYMDACGEANNQNFQQRYHAEEVEERFGRFKPGVISEELQDALGVTDKSLPPFIYRMRQLGYPPGWLKEAELENSGLALYDGKDGTDGETEVGEIQQNKSVTYDLSKLVNYPGFNISTPRGIPDEWRIFGSIPMQACQQKDVFANYLTSNFQAPGVKSGNKRSSSHSSPGSPKKQKNESNSAGSPADMELDSDMEVPHGSQSSESFQFQPPLPPDTPPLPRGTPPPVFTPPLPKGTPPLTPSDSPQTRTASGAVDEDALTLEELEEQQRRIWAALEQAESVNSDSDVPVDTPLTGNSVASSPCPNELDLPVPEGKTSEKQTLDEPEVPEIFTKKSEAGHASSPDSEVTSLCQKEKAELAPVNTEGALLDNGSVVPNCDISNGGSQKLFPADTSPSTATKIHSPIPDMSKFATGITPFEFENMAESTGMYLRIRSLLKNSPRNQQKNKKASE
B2: ZCCHC8 1-327 (Z2) (domain or fragment)
chain: MAAEVYFGDLELFEPFDHPEESIPKPVHTRFKDDDGDEEDENGVGDAELRERLRQCEETIEQLRAENQELKRKLNILTRPSGILVNDTKLDGPILQILFMNNAISKQYHQEIEEFVSNLVKRFEEQQKNDVEKTSFNLLPQPSSIVLEEDHKVEESCAIKNNKEAFSVVGSVLYFTNFCLDKLGQPLLNENPQLSEGWEIPKYHQVFSHIVSLEGQEIQVKAKRPKPHCFNCGSEEHQMKDCPMPRNAARISEKRKEYMDACGEANNQNFQQRYHAEEVEERFGRFKPGVISEELQDALGVTDKSLPPFIYRMRQLGYPPGWLKEAE
B3: Copurified complex of Strep-RBM7core and full-length ZCCHC8 (Z1) (complex)
chain 1: AEADRTLFVGNLETKVTEELLFELFHQAGPVIKVKIPKDKDGKPKQFAFVNFKHEVSVPYAMNLLNGIKLYGRPIKIQFRSGSSHAPQD
chain 2: B1 chain
B4: Copurified complex of Strep-RBM7core and ZCCHC8 1-327 (Z2) (complex)
chain 1: B3 chain 1
chain 2: B2 chain
B5: Copurified complex of Strep-RBM7core and ZCCHC8 283-415 + 508-707 (Z4) (complex)
chain 1: B3 chain 1
chain 2: FGRFKPGVISEELQDALGVTDKSLPPFIYRMRQLGYPPGWLKEAELENSGLALYDGKDGTDGETEVGEIQQNKSVTYDLSKLVNYPGFNISTPRGIPDEWRIFGSIPMQACQQKDVFANYLTSNFQAPGVKSGGAVDEDALTLEELEEQQRRIWAALEQAESVNSDSDVPVDTPLTGNSVASSPCPNELDLPVPEGKTSEKQTLDEPEVPEIFTKKSEAGHASSPDSEVTSLCQKEKAELAPVNTEGALLDNGSVVPNCDISNGGSQKLFPADTSPSTATKIHSPIPDMSKFATGITPFEFENMAESTGMYLRIRSLLKNSPRNQQKNKKASE
B6: ZCCHC8 283-415 + 508-707 (Z4) (domain or fragment)
chain: B5 chain 2
B7: Substrate II (dsRNA)
RNA 1: AGUGCGCUGUAUCUUCAAGGCCACU
RNA 2: AGUGGCCUUGAAGAUACAGCGCACUAAAAAUUUUUAAAAAAAAAA
B8: Substrate I (dsRNA)
RNA 1: AGUGCGCUGUAUCUUCAAGGCCACU
RNA 2: AGUGGCCUUGAAGAUACAGCGCACUUUUUUAAAAAAAAAAAAAAA
B9: Substrate III (dsRNA)
RNA 1: AGUGCGCUGUAUCUUCAAGGCCACU
RNA 2: AGUGGCCUUGAAGAUACAGCGCACUAAAAAAAAAAUUUUUAAAAA

The first series deals with T1, MTR4, full length. Put plainly: SEC. (In general: SEC sorts molecules by how far they enter the pores of the column.)
Regarding B1, the binding result is recorded as “binds”.

In another series the target is T1, MTR4, full length. Put plainly: pull-down.
Consider B2, for which the binding result is on record as “binds”.
Same read-out and setting: then B3, with “binds”.
As for B4, the binding result was “binds”.
On the same count and under the same terms, as for B5, the entry is “binds”.
Turning to B6, the binding result is listed as “binds”.
On the same count and under the same terms, then PIPDMSKFATGITPFEFENMAESTGMYLRIRSLLKNSPRNQQKNKKASE (domain or fragment) [Strep-tagged ZCCHC8 C-terminal domain (Z5; 659-707)], with “binds”.

In the next series the target is MTR4;ZCCHC8core;RBM7core (Homo sapiens?;Homo sapiens?;Homo …, UniProt P42285;Q6NZY4;Q9Y580 1-1042;1-707;6-94, |del416-507|). Put plainly: EMSA. On the technique in general: Mobility shift assays separate free from complexed probe on a gel.
Turning to B7, the binding result is “binds”.
Same read-out and setting: as for B8, the entry is “binds”.
In the case of B9, the binding result is reported as “binds”.

The values are drawn from publication PMC6004480 (Proceedings of the National Academy of Sciences of the …, 2018).
